In US11780907B2, “Human antibodies to influenza hemagglutinin” (Regeneron Pharmaceuticals, Inc., priority 2018, dated 2023):
“Also recorded” adds a separate entry of the source. Read-outs that look alike come from different tables or passages of the source.

Columns and labels:
[1] = tested on: A/Aichi/02/1968-X31 (H3N2); parameters: species or system BALB/c mice; conditions: mouse, in vivo
[2] = biological target: A/Hiroshima/52/2005 (H3) HA foldon protein; format: binding, influenza A virus
[3] = tested on: A/Aichi/02/1968-PR8-X31(H3N2)-infected MDCKs; format: cell-based, canine
[4] = tested on: group 1 strains (HA); format: binding, influenza A virus
[5] = tested on: A/Aichi/02/1968-X31 (H3N2); parameters: species or system BALB/c mice; conditions: mouse, in vivo, iv, 15 mg/kg
[6] = biological target: A/Shanghai/01/2013 (H7) HA foldon protein; format: binding, influenza A virus; conditions: 37° C.
[7] = tested on: A/Victoria/316/2011 (H3N2); format: cell-based, influenza A virus
[8] = tested on: A/Philippines/01/1982 (H3N2); format: cell-based, influenza A virus; conditions: read-out: Neutralization activity IC50
[9] = tested on: A/Shanghai/01/2013-PR8 (H7N9); format: cell-based, influenza A virus; conditions: read-out: Neutralization activity IC50
[10] = tested on: A/Aichi/02/1968-PR8-X31 (H3N2); format: cell-based, influenza A virus; conditions: read-out: Neutralization activity IC50

Molecule | survival [1] [%] | Kd [2] [nM] | maximum lysis (percent specific lysis) [3] [%] | binding to group 1 strains [4] | effect when dosed in combination with oseltamivir [1] | survival ([1]; 7 mg/kg) [%] | survival ([1]; 15 mg/kg) [%] | survival [5] | KD [6] | lowest concentration of mAb where no RBC hemagglutination was detected [7] [nM] | IC50 [8] [nM] | EC50 ([3]; read-out: CDC EC50) [nM] | IC50 [9] [nM] | IC50 [10] [nM]
CCOC(=O)C1=C[C@@H](OC(CC)CC)[C@H](NC(C)=O)[C@@H](N)C1 [oseltamivir, reference compound] | 80 |  |  |  |  |  |  |  |  |  |  |  |  | 
H1H14611N2: fully human anti-influenza A group 2 HA monoclonal antibody, HCVR/LCVR SEQ ID NOs: 2/10 (antibody, V domains shown) VH: EVQLVESGGGLVKPGGSLRLSCAASGFTFSGFSMNWVRQVPGKGLEWVSSISTSGNYMYYADSVKGRFTISRDNAKKSFSLQMNSLRAEDSAIYYCARGGGYNWNLFDYWGQGSLVTVSS VL: EIVLTQSPGTLSLSPGERATLSCRASQSLNSNYLAWYQQKPGQAPRLLIYGASSRATGIPDRFSGSGSGTDFTLTITRLESEDFAVYYCQQYGNSPLTFGGGTKVEIK |  | 8.22 | 78.3 | did not bind | additive protective effect; also recorded: additive efficacy | 80 | 100 | One hundred percent survival; also recorded: survived; also recorded: complete protection | IC^§ | 41.7 |  |  |  | 
H1H14612N2: fully human anti-influenza A group 2 HA monoclonal antibody, HCVR/LCVR SEQ ID NOs: 18/26 (antibody, V domains shown) VH: EVQLVESGGGLVKPGGSLRLSCAASGFSFSGFSMNWVRQAPGKGLEWVSSISTSGNYMYYADSVKGRFTISRDNAKKSFSLQMNSLRAEDSAIYYCARGGGYNWNLFDYWGQGSLVTVSS VL: EIVLTQSPGTLSLSPGERATLSCRASQSLNSNYLAWYQQKPGQAPRLLIYGASSRATGIPDRFSGSGSGADFTLTISRLESEDFAVYYCQQYGNSPLTFGGGTKVEIK |  |  | 86.3 |  |  |  |  | One hundred percent survival; also recorded: survived; also recorded: complete protection |  | 166.7 | 37.6 | 126 | > 6670 | 5.7
